For experiment [1], the target named is SARS-CoV-2 Nsp15 H250A (SARS-CoV-2). In words: SEC. On the technique in general: SEC sorts molecules by how far they enter the pores of the column.
Experiment [2] concerns the target SARS-CoV-2 Nsp15 H235A (SARS-CoV-2). As to the kind of experiment: SEC.
The target is the same in experiment [3]. In words: cryo-EM structure.

In publication doi:10.1101/2020.08.11.244863 one finds stoichiometry N data, which are given here for two substances.

For orientation: stoichiometry N means a count of units in the complex or per binding partner.

As for SARS-CoV-2 Nsp15 H250A (enzyme), the stoichiometry N in experiment [1] stood at 6. For SARS-CoV-2 Nsp15 H235A (enzyme), the stoichiometry N in experiment [2] and in experiment [3] was 6 throughout.
